doi:10.1101/555623

Key:
[1] = molecular target: BRCA1 tBRCT L1701K mutant (human) (UniProt P38398); test: MST
[2] = molecular target: BRCA1 tBRCT F1662R mutant (human) (UniProt P38398); test: MST

Kd [1]: 1960 nM | Kd [2]: 860 nM
Substance: BACH1 phosphopeptide
